T1: LANA DBD wild-type (KSHV (HHV-8), UniProt Q9DUN0 825-967)
T1 sequence: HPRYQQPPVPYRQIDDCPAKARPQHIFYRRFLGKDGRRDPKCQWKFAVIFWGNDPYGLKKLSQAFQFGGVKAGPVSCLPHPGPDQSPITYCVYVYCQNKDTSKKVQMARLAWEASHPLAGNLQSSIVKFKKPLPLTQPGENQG

B1: LBS1 21-mer FP probe (dsDNA)
DNA 1: AGCGGCCCCATGCCCGGGCGG
DNA 2: CCGCCCGGGCATGGGGCCGCT
B2: His-SMT3-BRD2 ET domain, short form (BRD2 633-714) (domain or fragment, UniProt P25440 633-714, looked up)
chain: SEEEEESRPMSYDEKRQLSLDINKLPGEKLGRVVHIIQAREPSLRDSNPEEIEIDFETLKPSTLRELERYVLSCLRKKPRKP
notes: also called BRD2S
B3: LANA C-terminal DNA binding domain (residues 1011-1153), wild type (domain or fragment)
chain: T1 sequence
notes: source: E. coli, purified (Ni-NTA, tag cleaved with ULP1, second Ni-NTA, Superdex 75)

For one data set, the target named is T1, LANA DBD wild-type. The data set is described as follows: fluorescence polarization; cooperative, Hill h > 1; Kd only in figure; FP: 200 mM NaCl, 20 mM HEPES, 1 mM DTT, (protein stock pH 7.4), 1 ug/mL BSA, 0.1 ug/mL poly(dA:dT), 0.001% Tween 20, 1 nM probe, room temperature 30 min; EMSA:
The note with it: protein: recombinant; tags: His-SMT3 removed by ULP1; chain copies: 2; label: 5' 6-carboxyfluorescein; blunt.

The target of data set [1] is B3. Put plainly: pull-down; His-SMT3-BRD ET domain held on Ni-NTA resin; untagged LANADBD or EBNA1DBD added; 200 mM NaCl, 20 mM HEPES, 5 mM BME, pH 8.0; washed with 10 CV; eluted with 300 mM imidazole. The settings on record: both partners purified.
Data set [2] concerns the molecule itself. The data set is described as follows: cross-linking; EGS, without DNA; 200 mM NaCl, 20 mM HEPES pH 7.4, 1 mM DTT, room temperature; samples boiled and run on gels.
Data set [3] deals with the molecule itself. The data set is described as follows: cross-linking; EGS, with a 1.2 molar excess of LBS1 DNA (unlabeled 21-mer); 200 mM NaCl, 20 mM HEPES pH 7.4, 1 mM DTT, room temperature; step: dimers and tetramers to higher oligomers.
Data set [4] concerns the target T2, His-SMT3-BRD2 ET domain, long form (BRD2 633-801) (UniProt P25440 633-801).
T2 construct: also called BRD2L
The data set is described as follows: pull-down; His-SMT3-BRD ET domain held on Ni-NTA resin; untagged LANADBD or EBNA1DBD added; 200 mM NaCl, 20 mM HEPES, 5 mM BME, pH 8.0; washed with 10 CV; eluted with 300 mM imidazole. The note with it: both partners purified.

Usually stoichiometry N stands for the number of molecules, sites or subunits per partner or assembly.

Consider B1, for which the binding result in the data set with LANA DBD wild-type is recorded as “binds”. On to B2, for which the binding result in data set [1] was “binds”. Turning to B3, the “stoichiometry N” value in data set [2] is 4; in data set [3], around 10. Moreover, the binding result in data set [4] is given as “binds”.

These data come from publication PMC3798644, “Molecular Basis for Oligomeric-DNA Binding and Episome Maintenance by KSHV LANA” (PLoS Pathogens, 2013).
